In assay [1] the target is B1_N67I, S215P loop (RSV B1) (UniProt O36634). Nature of the assay: quantitative Octet, CR9501 on sensor, culture supernatant.
Another assay has as its target B1_N67I, S215P (RSV B1) (UniProt O36634). The description is as above.
For a further assay, the target named is A2_F24 VI56IV (RSV A2) (UniProt P03420). As to the kind of experiment: Octet BLI endpoint, CR9501 on sensor, culture supernatant.

For CR9501 (antibody), the % concentration measured with CR9501 after 5 days at 4 C relative to day of harvest in assay [1] is 108%; in the assay with B1_N67I, S215P (RSV B1) it was 90.9%. This substance registered a % CR9501 binding after 5 days at 4 C relative to day 1 with A2_F24 VI56IV (RSV A2) of 54%.

The values above are taken from patent US20160102123A1.
